Measured values taken from patent US20210139607A1 (JACKSON LABORATORY, published 2021).

Molecular target: T1, human N-glycanase 1 (NGLY-1) (human, UniProt Q96IV0 2-654)
T1 construct: Endogenous protein in cell lysates, denatured on immunoblots; also called human NGLY1 protein
T1 sequence (looked up): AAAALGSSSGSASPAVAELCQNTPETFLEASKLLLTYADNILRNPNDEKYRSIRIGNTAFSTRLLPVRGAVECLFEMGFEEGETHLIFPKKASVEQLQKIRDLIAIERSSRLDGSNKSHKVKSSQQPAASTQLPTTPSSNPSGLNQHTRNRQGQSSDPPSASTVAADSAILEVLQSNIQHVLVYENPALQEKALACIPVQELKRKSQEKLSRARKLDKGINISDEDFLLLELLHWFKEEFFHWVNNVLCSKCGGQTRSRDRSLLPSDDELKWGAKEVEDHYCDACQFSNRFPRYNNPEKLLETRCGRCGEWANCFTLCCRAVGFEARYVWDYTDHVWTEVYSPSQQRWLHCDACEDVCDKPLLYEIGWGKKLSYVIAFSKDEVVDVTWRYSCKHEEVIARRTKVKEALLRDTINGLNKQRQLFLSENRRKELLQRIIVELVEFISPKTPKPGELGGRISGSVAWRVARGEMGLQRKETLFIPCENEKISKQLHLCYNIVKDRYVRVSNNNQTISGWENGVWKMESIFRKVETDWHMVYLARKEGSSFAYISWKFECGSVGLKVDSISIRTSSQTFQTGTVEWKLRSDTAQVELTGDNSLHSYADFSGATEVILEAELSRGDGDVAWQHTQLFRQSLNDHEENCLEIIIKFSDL
Experiment: immunoblot on isogenic human NGLY1 null and wild type iPS cell lines
Experimental: The conjugate was injected into female BALB/cJ mice at a dose of 10 μg per mouse with Alum adjuvant. Mice were immunized by i.p injection three times approximately two (2) weeks apart. Ten days after the third immunization, splenocytes were isolated and fused with SP2 myeloma cells to create hybridoma cell lines. Hybridomas were cultured in 96-well plates and supernatants screened on protein arrays and by ELISA. Positive clones were further validated by western blot using lysates prepared from C57BL/6J and the CRISPR/Cas9 generated null strain as positive and negative controls. Additional immunoblots were used to identify additional clones that generated antibodies capable of cross reacting with human NGLY1 protein. Isogenic human derived NGLY1 null and wild type iPS cell lines providing positive and negative controls evaluation of anti-human NGLY1 cross-reactivity were provided. A single hybridoma gave rise to clone 5G8 that generated an antibody that was specific to both murine and human NGLY1 protein and was used for subsequent studies.

B1: mouse anti-NGly-1 monoclonal antibody, clone 5G8 (antibody, V domains shown)
VH: QVQLQQSGAELVRPGTSVKVSCKASGYAFINYLIEWVKQRPGQGLEWIGIISPGSGSTNYNEEFRGRATLTADRSSSTAYMQLSSLTSDDSAVYFCARGGLTHYSGSTYEEGFDFWGQGTTLTVSS
VL: QAVVTQESALTTSPGETVTLTCRSSTGAVTTTNYANWVQEKPDHLFTGLIGGTNNRAPGVPARFSGSLIGDKAALTITGAQTDDEAIYFCALWYSNRWVFGGGTKLTVLG
notes: also called anti-NGly-1 monoclonal antibody of the present disclosure; Mouse monoclonal (anti-mouse peptide), JAX Monoclonal Service
Does B1 bind?
Result: binds
